Test results from patent publication US20210130436A1 (published 2021).
Values belong to the binder of their own block, whether it stands above or below them.

Legend:
human PD-L1 [1] = biological target: T1, human PD-L1 (human, UniProt Q9NZQ7 19-290); test: flow cytometry, CHO cells stably expressing huPD-L1, 33.3 nM Fc fusion, PE anti-human Fc
T1 construct: whole, on cells; CHO cells stably expressing huPD-L1; also called huPD-L1

human CTLA-4 = biological target: T2, human CTLA-4 (human, UniProt P16410 36-223); test: flow cytometry, CHO cells stably expressing huCTLA-4, 33.3 nM Fc fusion, PE anti-human Fc
T2 construct: whole, on cells; CHO cells stably expressing huCTLA4; also called huCTLA4
T2 sequence (P16410 36-223): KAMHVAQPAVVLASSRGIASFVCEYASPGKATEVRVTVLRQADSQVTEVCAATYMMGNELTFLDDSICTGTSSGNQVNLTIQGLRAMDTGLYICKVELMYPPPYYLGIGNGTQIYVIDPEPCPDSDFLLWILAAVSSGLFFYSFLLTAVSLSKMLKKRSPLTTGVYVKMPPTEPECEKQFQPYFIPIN

[2] = biological target: T3, human CTLA4 (full-length, expressed on CHO cells) (human, UniProt P16410 36-223); test: flow cytometry, CHO cells expressing huCTLA4, PE anti-human Fc
T3 construct: also called huCTLA4
T3 sequence (P16410 36-223): as above

[3] = biological target: T4, CD28 (endogenously expressed on Jurkat/IL2 reporter cells) (human, UniProt P10747 19-220); test: flow cytometry, Jurkat/IL2 reporter cells (endogenous CD28), PE anti-human Fc
T4 construct: Endogenous CD28 of Jurkat cells; also called human CD28

[4] = biological target: T5, CD28 on Jurkat/IL2 reporter cells (human, UniProt P10747 19-220); test: flow cytometry, Jurkat cells (CD28)
T5 construct: whole, on cells; Endogenous CD28 of Jurkat cells; also called Jurkats (CD28)

human CTLA4 on CHO cells = biological target: T6, human CTLA4 on CHO cells (human, UniProt P16410 36-223); test: flow cytometry, CHO cells stably expressing CTLA4
T6 construct: whole, on cells; CHO cells stably expressing CTLA4; also called huCTLA4
T6 sequence (P16410 36-223): as above

[5] = biological target: T4, CD28 (endogenously expressed on …); test: flow cytometry MFI at 33.3 nM relative to WT CD80 ECD-Fc (R&D), Jurkat cells
[6] = biological target: T7, human PD-L1 (full-length, expressed on CHO cells) (human, UniProt Q9NZQ7 19-290); test: flow cytometry, MFI on CHO/huPD-L1 cells over MFI on Jurkat (CD28) cells, 33.3 nM
T7 construct: also called huPD-L1; CD274
T7 sequence (Q9NZQ7 19-290): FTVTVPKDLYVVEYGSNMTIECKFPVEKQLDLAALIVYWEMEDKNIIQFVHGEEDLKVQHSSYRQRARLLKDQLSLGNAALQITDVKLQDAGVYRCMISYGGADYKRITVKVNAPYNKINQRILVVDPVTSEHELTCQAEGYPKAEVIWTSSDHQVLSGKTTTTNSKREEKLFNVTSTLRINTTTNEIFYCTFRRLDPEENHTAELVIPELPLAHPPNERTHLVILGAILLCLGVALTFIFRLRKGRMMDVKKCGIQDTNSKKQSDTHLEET

[7] = biological target: T7, human PD-L1 (full-length, expressed on …); test: flow cytometry, CHO cells expressing huPD-L1, PE anti-human Fc
[8] = biological target: T7, human PD-L1 (full-length, expressed on …); test: flow cytometry MFI at 33.3 nM relative to WT CD80 ECD-Fc (R&D), CHO/huPD-L1 cells
human PD-L1 [9] = biological target: T8, human PD-L1 (human, UniProt Q9NZQ7 19-290); test: flow cytometry, CHO cells stably expressing PD-L1
T8 construct: also called huPD-L1; CD274

human CD28 = human CD28 (human, UniProt P10747 19-220); test: flow cytometry, Jurkat cells (CD28)
[10] = biological target: T9, human PD-L1 expressed on CHO cells (human, UniProt Q9NZQ7 19-290); test: flow cytometry, CHO cells stably expressing PD-L1, Fc fusion at 33.3 nM
T9 construct: whole, on cells; Target on CHO cells stably expressing PD-L1; also called huPD-L1
T9 sequence (Q9NZQ7 19-290): as above

human PD-L1 on CHO cells = biological target: T10, human PD-L1 on CHO cells (human, UniProt Q9NZQ7 19-290); test: flow cytometry, CHO cells stably expressing PD-L1
T10 construct: whole, on cells; CHO cells stably expressing PD-L1; also called huPD-L1
T10 sequence (Q9NZQ7 19-290): as above

- MFI at 33.3 nM [2]: 3560 MFI
- MFI at 33.3 nM [3]: 303 MFI
B2: variant CD80 IgV-Fc Q33R/E35D/D46E/M47I (Fc fusion, not shown: a dimerising Fc or GST)
chain: VIHVTKEVKEVATLSCGHNVSVEELAQTRIYWRKDKKMVLTMMSGEINIWPEYKNRTIFDITNNLSIVILALRPSDEGTYECVVLKYEKDAFKREHLAEVTLSVKAD

- MFI at 33.3 nM [4]: 99.4 MFI
- MFI at 33.3 nM (human CTLA4 on CHO cells): 31200 MFI
B3: variant CD80 IgV-Fc E35D/M47V/T62S/L85Q (Fc fusion, not shown: a dimerising Fc or GST)
chain: VIHVTKEVKEVATLSCGHNVSVEELAQTRIYWQKDKKMVLTMMSGDVNIWPEYKNRTIFDISNNLSIVILALRPSDEGTYECVVQKYEKDAFKREHLAEVTLSVKAD

- Fold change to WT [5]: 0.04 fold
- Ratio of PDL1:CD28 [6]: 153 ratio
- MFI at 33.3 nM [7]: 43800 MFI
- Fold change to WT [8]: 5.52 fold
- MFI at 33.3 nM [3]: 287 MFI
B5: variant CD80 IgV-Fc Q33L/E35D/T41S/M47V (Fc fusion, not shown: a dimerising Fc or GST)
chain: VIHVTKEVKEVATLSCGHNVSVEELAQTRIYWLKDKKMVLSMMSGDVNIWPEYKNRTIFDITNNLSIVILALRPSDEGTYECVVLKYEKDAFKREHLAEVTLSVKAD

- Fold change to WT [5]: 0.03 fold
- Ratio of PDL1:CD28 [6]: 104 ratio
- MFI at 33.3 nM [7]: 26700 MFI
- Fold change to WT [8]: 3.36 fold
- MFI at 33.3 nM [3]: 257 MFI
B7: variant CD80 IgV-Fc Q33K/E35D/D46V/L85Q (Fc fusion, not shown: a dimerising Fc or GST)
chain: VIHVTKEVKEVATLSCGHNVSVEELAQTRIYWKKDKKMVLTMMSGVMNIWPEYKNRTIFDITNNLSIVILALRPSDEGTYECVVQKYEKDAFKREHLAEVTLSVKAD

- MFI at 33.3 nM [7]: 47900 MFI
- MFI at 33.3 nM [2]: 47600 MFI
B9: variant CD80 IgV-Fc Q33L/E35D/M47V (Fc fusion, not shown: a dimerising Fc or GST)
chain: VIHVTKEVKEVATLSCGHNVSVEELAQTRIYWLKDKKMVLTMMSGDVNIWPEYKNRTIFDITNNLSIVILALRPSDEGTYECVVLKYEKDAFKREHLAEVTLSVKAD

Second part, the binder before the results:

B1: variant CD80 IgV-Fc (inert) H18V/A26N/E35D/M47V/V68M/A71G (Fc fusion)
chain: VIHVTKEVKEVATLSCGVNVSVEELNQTRIYWQKDKKMVLTMMSGDVNIWPEYKNRTIFDITNNLSIMILGLRPSDEGTYECVVLKYEKDAFKREHLAEVTLSVKAD
notes: not shown: inert human IgG1 Fc
- MFI at 33.3 nM (human PD-L1 [1]): 68200 MFI
- MFI at 33.3 nM (human CTLA-4): 22400 MFI

B4: variant CD80 IgV-Fc (inert) H18R/A26P/E35D/D46N/M47V/V68M/A71G/D90P (Fc fusion)
chain: VIHVTKEVKEVATLSCGRNVSVEELPQTRIYWQKDKKMVLTMMSGNVNIWPEYKNRTIFDITNNLSIMILGLRPSDEGTYECVVLKYEKPAFKREHLAEVTLSVKAD
notes: as for B1
- MFI at 33.3 nM (human PD-L1 [1]): 29300 MFI
- MFI at 33.3 nM (human CTLA-4): 17300 MFI

B6: CD80 IgV-Fc V22D/E24D/E35D/M47L/V68M (Fc fusion, not shown: a dimerising Fc or GST)
chain: VIHVTKEVKEVATLSCGHNVSDEDLAQTRIYWQKDKKMVLTMMSGDLNIWPEYKNRTIFDITNNLSIMILALRPSDEGTYECVVLKYEKDAFKREHLAEVTLSVKAD
- MFI at 33.3 nM (human PD-L1 [9]): 15400 MFI
- MFI at 33.3 nM (human CD28): 1250 MFI

B8: CD80 E35D/M47V/V68M IgV-Fc (Fc fusion, not shown: small tags and cut ends; a dimerising Fc or GST)
chain: VIHVTKEVKEVATLSCGHNVSVEELAQTRIYWQKDKKMVLTMMSGDVNIWPEYKNRTIFDITNNLSIMILALRPSDEGTYECVVLKYEKDAFKREHLAEVTLSVKAD
- MFI at 33.3 nM [10]: 16600 MFI

B10: CD80 IgV-Fc T13R/E35D/M47L/V68M (Fc fusion, not shown: a dimerising Fc or GST)
chain: VIHVTKEVKEVARLSCGHNVSVEELAQTRIYWQKDKKMVLTMMSGDLNIWPEYKNRTIFDITNNLSIMILALRPSDEGTYECVVLKYEKDAFKREHLAEVTLSVKAD
- MFI at 33.3 nM (human PD-L1 [9]): 20000 MFI
- MFI at 33.3 nM (human CD28): 15.6 MFI

B11: CD80 M47V/N48K/V68M/K89N IgV-Fc (Fc fusion, not shown: small tags and cut ends; a dimerising Fc or GST)
chain: VIHVTKEVKEVATLSCGHNVSVEELAQTRIYWQKEKKMVLTMMSGDVKIWPEYKNRTIFDITNNLSIMILALRPSDEGTYECVVLKYENDAFKREHLAEVTLSVKAD
- MFI at 33.3 nM [10]: 23700 MFI

B12: variant CD80 IgV-Fc E35D/M47V/I61V/L85M (Fc fusion, not shown: a dimerising Fc or GST)
chain: VIHVTKEVKEVATLSCGHNVSVEELAQTRIYWQKDKKMVLTMMSGDVNIWPEYKNRTIFDVTNNLSIVILALRPSDEGTYECVVMKYEKDAFKREHLAEVTLSVKAD
- MFI at 33.3 nM [4]: 274 MFI
- MFI at 33.3 nM (human CTLA4 on CHO cells): 28800 MFI
- MFI at 33.3 nM (human PD-L1 on CHO cells): 3050 MFI
